# In US20250197510A1 (published 2025):
# T1: FLT3 on Nalm16 cells (human, UniProt P36888 27-993)
# T1 construct: whole, on cells; Also used for FLT3 on primary leukemic cells of patients in the functional rows; also called NALM16 (FLT3+); FLT3 on leukemic cells
# T1 sequence (looked up): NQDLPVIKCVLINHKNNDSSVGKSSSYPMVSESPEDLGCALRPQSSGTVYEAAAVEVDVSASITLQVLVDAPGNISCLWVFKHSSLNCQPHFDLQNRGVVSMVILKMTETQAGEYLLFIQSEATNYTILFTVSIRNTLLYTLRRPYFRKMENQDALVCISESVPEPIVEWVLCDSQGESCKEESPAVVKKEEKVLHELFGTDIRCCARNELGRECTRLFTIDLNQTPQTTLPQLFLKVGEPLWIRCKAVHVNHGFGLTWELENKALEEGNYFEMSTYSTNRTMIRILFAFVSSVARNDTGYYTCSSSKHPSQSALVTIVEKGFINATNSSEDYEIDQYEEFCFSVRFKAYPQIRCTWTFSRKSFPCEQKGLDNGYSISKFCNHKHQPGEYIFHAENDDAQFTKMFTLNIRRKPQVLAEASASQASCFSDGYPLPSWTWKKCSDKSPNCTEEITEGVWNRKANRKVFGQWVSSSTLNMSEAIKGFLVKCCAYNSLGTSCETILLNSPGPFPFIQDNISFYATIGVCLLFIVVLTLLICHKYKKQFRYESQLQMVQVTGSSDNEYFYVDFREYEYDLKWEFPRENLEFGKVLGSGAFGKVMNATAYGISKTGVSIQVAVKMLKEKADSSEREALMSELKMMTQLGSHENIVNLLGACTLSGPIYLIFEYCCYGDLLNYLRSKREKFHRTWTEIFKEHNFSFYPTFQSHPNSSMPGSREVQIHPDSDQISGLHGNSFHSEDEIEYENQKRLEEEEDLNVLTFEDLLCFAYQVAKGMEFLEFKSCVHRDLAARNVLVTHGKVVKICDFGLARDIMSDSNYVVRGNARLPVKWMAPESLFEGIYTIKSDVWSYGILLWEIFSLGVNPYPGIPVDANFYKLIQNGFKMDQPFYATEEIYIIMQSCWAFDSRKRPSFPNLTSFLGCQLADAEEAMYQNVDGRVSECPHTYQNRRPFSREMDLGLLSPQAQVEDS
# B1: V6-V6 (bispecific antibody, human IgG1, kappa)
# heavy: QVQLQQPGAELVKPGASLKLSCKSSGYTFTSYWMHWVRQRPGHGLEWIGEIDPSDSYKDYNQKFKDKATLTVDRSSNTAYMHLSSLTSDDSAVYYCARAITTTPFDFWGQGTTLTVSSASTKGPSVFPLAPSSKSTSGGTAALGCLVKDYFPEPVTVSWNSGALTSGVHTFPAVLQSSGLYSLSSVVTVPSSSLGTQTYICNVNHKPSNTKVDKKVEPKSCDKTHTCPPCPAPPVAGPSVFLFPPKPKDTLMISRTPEVTCVVVGVSHEDPEVKFNWYVDGVEVHNAKTKPREEQYNSTYRVVSVLTVLHQDWLNGKEYKCKVSNKQLPSPIEKTISKAKGQPREPQVYTLPPSRDELTKNQVSLTCLVKGFYPSDIAVEWESNGQPENNYKTTPPVLDSDGSFFLYSKLTVDKSRWQQGNVFSCSVMHEALHNHYTQKSLSLSPGKSGDIQMTQSPSSLSASVGDRVTITCRASQDIRNYLNWYQQKPGKAPKLLIYYTSRLESGVPSRFSGSGSGTDYTLTISSLQPEDFATYYCQQGNTLPWTFGQGTKVEIKGGGGSGGGGSGGGGSEVQLVESGGGLVQPGGSLRLSCAASGYSFTGYTMNWVRQAPGKGLEWVALINPYKGVSTYNQKFKDRFTISVDKSKNTAYLQMNSLRAEDTAVYYCARSGYYGDSDWYFDVWGQGTLVTVSS
# light: DIVLTQSPATLSVTPGDSVSLSCRASQSISNNLHWYQQKSHESPRLLIKYASQSISGIPSRFSGSGSGTDFTLSINSVETEDFGVYFCQQSNTWPYTFGGGTKLEIKRTVAAPSVFIFPPSDEQLKSGTASVVCLLNNFYPREAKVQWKVDNALQSGNSQESVTEQDSKDSTYSLSSTLTLSKADYEKHKVYACEVTHQGLSSPVTKSFNRGEC
# notes: also called CC-2; FLT3 (4G8) x CD3 (humanized hUCHT1) bispecific IgGsc
# Biological target: T1, FLT3 on Nalm16 cells
# Assay: flow cytometry on NALM16 (FLT3+) cells, PE-conjugated anti human Fcγ secondary antibody
# Description: In addition, antibody binding affinity was also tested using binding of the antibody to its target(s) as expressed on cells. Analyzed is the binding of CC-2 variants to Nalm16 cells expressing FLT3 (FIG. 4) or Jurkat cells expressing CD3 (FIG. 6). Variants V1 to V9 (with V6 being V6-V6) were produced after transient transfection of CHO cells using the insert sequences listed above. The antibodies were purified by protein A affinity-and size exclusion-chromatography. […] To measure antibody binding to FLT3 and CD3 NALM16 (FLT3+) and Jurkat (CD3+) cells were incubated with the respective variants for 30 min, washed, stained with a goat anti human Fcγ-specific and PE-conjugated secondary antibody (Jackson Immuno Research), washed again and analyzed by flow cytometry (FACSCalibur, BD Biosciences).
binder,measurement,value
B1,EC50,~1 nM
